Where no end group is shown, it is not given here.
T1: soluble human TREM2 (sTREM2) (human, UniProt Q9NZC2 19-157)
T1 construct: also called soluble TREM2; TREM2 ectodomain
T1 sequence: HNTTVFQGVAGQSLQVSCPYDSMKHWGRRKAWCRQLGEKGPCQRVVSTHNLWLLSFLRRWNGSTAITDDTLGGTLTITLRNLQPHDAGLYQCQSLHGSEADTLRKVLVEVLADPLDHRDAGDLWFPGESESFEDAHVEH

T2: human TREM2 on cells (human, UniProt Q9NZC2 19-230)
T2 sequence: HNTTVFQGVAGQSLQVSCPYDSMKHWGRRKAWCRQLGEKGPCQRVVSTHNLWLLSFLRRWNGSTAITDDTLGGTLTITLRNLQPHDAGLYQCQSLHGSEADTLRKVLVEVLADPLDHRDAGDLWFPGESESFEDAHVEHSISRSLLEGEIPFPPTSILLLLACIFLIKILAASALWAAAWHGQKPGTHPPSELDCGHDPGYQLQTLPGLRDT

T3: 159-175 (also: biotinylated (site not given here))
T3 construct: member of the group m13
T3 peptide: ISRSLLEGEIPFPPTSI

T4: soluble monomeric human TREM2 (human, UniProt Q9NZC2 19-174, limits assumed)
T4 construct: Not the same as shed sTREM2; also called soluble monomeric TREM2
T4 sequence: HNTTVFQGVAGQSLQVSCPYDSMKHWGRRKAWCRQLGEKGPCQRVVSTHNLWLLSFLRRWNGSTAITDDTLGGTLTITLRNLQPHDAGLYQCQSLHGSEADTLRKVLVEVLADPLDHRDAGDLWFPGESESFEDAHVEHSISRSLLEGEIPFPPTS

T5: hTREM2 stalk antigen (human, UniProt Q9NZC2 129-174)
T5 construct: also called human TREM2 stalk
T5 chain: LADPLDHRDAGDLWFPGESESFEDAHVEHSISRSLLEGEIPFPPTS

T6: cynomolgus TREM2 stalk antigen (cynomolgus monkey, UniProt A0A2K5UY34 159-204, not fully specified)
T6 construct: domain: stalk
T6 chain: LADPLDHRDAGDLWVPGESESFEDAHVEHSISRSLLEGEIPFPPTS


Experiments:
[1] = biological target: T1, soluble human TREM2 (sTREM2); experiment: sandwich ELISA: test antibody coated as capture, sTREM2 from BMDM culture supernatant, biotinylated 3.17A9 as detection; normalised to 1.16B8
Description: For example, as shown in an Example 11 herein, the human TREM2 ELISA assay measured binding of antibodies to sTREM2 by coating onto plate wells the antibody to be tested as capture reagents and with biotinylated IgV-reactive monoclonal antibody 3.17A9 used as the detection reagent. Control antibody 1.16B8 was used as a positive control antibody to establish the standard for sTREM2 binding.
A human TREM2 ELISA assay was used to measure binding of more than forty antibodies to soluble TREM2 (sTREM2) as follows: test anti-hTREM2 antibodies were coated onto plate wells as capture reagents and a biotinylated IgV-reactive monoclonal antibody, 3.17A9, was used as the detection reagent. Antibody 1.16B8 was used as a control antibody to establish the standard for sTREM2 binding. Plates coated with test or control antibody were incubated with diluted culture supernatant from bone marrow-derived macrophage (BMDM) cultures from transgenic mice expressing hTREM2. sTREM2 is constitutively produced by the BMDM cultures expressing hTREM2 and shed into the culture supernatant. Measurements were recorded at 450 nm for detection and 570 nm for background. The 3.17A9/1.16B8 antibody pair was selected over reagents provided in the R&D Systems kit as the commercial reagents were not compatible with sTREM2 detection of some of the antibodies tested. Control antibody 1.16B8 light chain sequence is shown in SEQ ID NO: 170, and its heavy chain sequence is shown in SEQ ID NO: 171.

human TREM2 on cells = biological target: T2, human TREM2 on cells; experiment: cell-based or functional assay
159-175 = biological target: T3, 159-175; experiment: peptide ELISA with IgG, grey-scale heat map of OD650nm
[2] = biological target: T4, soluble monomeric human TREM2; experiment: SPR (Biacore T200), 37 C; IgG on anti-CH1 chip, soluble monomeric TREM2
hTREM2 stalk antigen = biological target: T5, hTREM2 stalk antigen; experiment: SPR (Biacore T200), 37 C; TREM2 stalk antigen on anti-human IgG1 Fc chip, antibody in solution
Procedure: (§1) Forty-six rat anti-human antibodies were tested for binding affinity to the hTREM2 and cynomolgus TREM2 stalk. Antibody binding affinities for hTREM2 stalk and cynomolgus TREM2 stalk were measured by surface plasmon resonance (SPR) using a Biacore™ T200 apparatus. TREM2 stalk antigens (human or cynomolgus) were immobilized on anti-human IgG1 Fc Biacore™ chips and anti-TREM2 antibody clones were bound to immobilized TREM2 at 37° C. Binding affinities, KD (nM) were measured and recorded.
(§2) Several antibodies were selected for binding measurements against cynomolgus TREM2 stalk. […] These four antibodies are referred to collectively below as the “3.10C2 group” of antibodies.

[3] = biological target: T6, cynomolgus TREM2 stalk antigen; experiment: as above
Procedure: as §1, §2

Binder	binding result [1]	binding result (159-175)	other results
rat Para.09- LC 3.27H7 mIgG2a LALAPG (antibody, V domains shown, Mouse IgG2a LALAPG constant region; also called Rat para.09 mIgG2a LALAPG; Para.09. mIgG2a LALAPG) VH: EVQLVETGGSLVQPGKSLRLTCATSGFPFSNVWLHWVRQSPEKHPEWVAHIKAKSDNYATYYAESVKGRFTISRDDSKSSVFLQMNSLKEEDTAIYYCTDILEYWGQGTLVTVSS VL: DVVLTQAPLSVSVTPGESASISCRSSRSLLTSKGITSLYWYLQKPGMSPHLLIYRMSNLASGIPDRFSGSGSETDFTLKISEVEPEDVGVYYCAQFLVYPYTFGAGTKLELKR	no binding	–	EC50, Jurkat NFAT luciferase reporter cells (human TREM2 on cells): 0.04 µg/mL
rat 3.18E5 mIgG2a LALAPG (antibody, V domains shown, Mouse IgG2a LALAPG constant region) VH: EVQLVETGGSLVQPGKSLKLTCATSGFPFSNVWMHWVRQSPEKQLEWIAHIKAKSDNYATYYAESVKGRFTISRDDSKTTIYLQMNSLKEADTAIYYCTGLDYWGQGVMVTVSS VL: DTVLTQAPLSVSVTPGESASISCRSNKSLLGIRDITSLYWYLQKPGKSPQLLIYRMSNLASGVPDRFSGSGSETDFTLKISEVETEDVGVYYCAQFLRYPYTFGPGTKLELK	no binding	–	–
rat 3.10C2 mIgG2a LALAPG (antibody, V domains shown, also called Rat 3.10C2 mIgG1a LALAPG) VH: EVQLVETGGSLVQPGKSLKLTCATSGFPFSNVWMHWVRQSPEKQLEWIAHIKAKSDNYATYYAESVKGRFTISRDDSKTSIYLQMNSLKEDDTAIYYCTGLDYWGQGVMVTVSS VL: DTVLTQAPLSLSVTPGESASISCRSSKSLLGVRDITSLYWYLQKPGKSPQLLIYRMSNLASGVPDRFSGSGSETDFTLKISEVETEDVGVYYCAQFLRYPYTFGPGTKLELK	no binding	–	EC50, Jurkat NFAT luciferase reporter cells (human TREM2 on cells): 0.28 µg/mL
rat 3.50G1 mIgG2a LALAPG (antibody, V domains shown, Mouse IgG2a LALAPG constant region) VH: EVQLVETGGSLVQPGKSLKLTCATSGFPFSNVWMHWVRQSPEKQLEWIAHIKAKSDNYATYYAESVKGRFTISRDDSKTSIYLQMNSLKDDDTAIYYCTGLDYWGQGVMVTVSS VL: DTVLTQAPLSVSVTPGESASISCRSNKSLLGIRDITSLYWFLQKPGKSPQLLIYRMSNLASGVPDRFSGSGSETDFTLKISEVETEDVGVYYCAQFLRYPYTFGPGTKLELQ	no binding	–	–
Para.09 IgG with the 3.18E5 light chain (antibody, V domains shown) VH: EVQLVETGGSLVQPGKSLRLTCATSGFPFSNVWLHWVRQSPEKHPEWVAHIKAKSDNYATYYAESVKGRFTISRDDSKSSVFLQMNSLKEEDTAIYYCTDILEYWGQGTLVTVSS VL: DTVLTQAPLSVSVTPGESASISCRSNKSLLGIRDITSLYWYLQKPGKSPQLLIYRMSNLASGVPDRFSGSGSETDFTLKISEVETEDVGVYYCAQFLRYPYTFGPGTKLELK	–	no binding	–
Para.09 IgG with the 3.10C2 light chain (antibody, V domains shown) VH: EVQLVETGGSLVQPGKSLRLTCATSGFPFSNVWLHWVRQSPEKHPEWVAHIKAKSDNYATYYAESVKGRFTISRDDSKSSVFLQMNSLKEEDTAIYYCTDILEYWGQGTLVTVSS VL: DTVLTQAPLSLSVTPGESASISCRSSKSLLGVRDITSLYWYLQKPGKSPQLLIYRMSNLASGVPDRFSGSGSETDFTLKISEVETEDVGVYYCAQFLRYPYTFGPGTKLELK	–	no binding	–
Para.09 IgG with the 3.50G1 light chain (antibody, V domains shown) VH: EVQLVETGGSLVQPGKSLRLTCATSGFPFSNVWLHWVRQSPEKHPEWVAHIKAKSDNYATYYAESVKGRFTISRDDSKSSVFLQMNSLKEEDTAIYYCTDILEYWGQGTLVTVSS VL: DTVLTQAPLSVSVTPGESASISCRSNKSLLGIRDITSLYWFLQKPGKSPQLLIYRMSNLASGVPDRFSGSGSETDFTLKISEVETEDVGVYYCAQFLRYPYTFGPGTKLELQ	–	no binding	–
Para.09 IgG with the 3.27H7 light chain (antibody, V domains shown, also called rat Para.09; Para.09-L27H7) VH: EVQLVETGGSLVQPGKSLRLTCATSGFPFSNVWLHWVRQSPEKHPEWVAHIKAKSDNYATYYAESVKGRFTISRDDSKSSVFLQMNSLKEEDTAIYYCTDILEYWGQGTLVTVSS VL: DVVLTQAPLSVSVTPGESASISCRSSRSLLTSKGITSLYWYLQKPGMSPHLLIYRMSNLASGIPDRFSGSGSETDFTLKISEVEPEDVGVYYCAQFLVYPYTFGAGTKLELK	–	no binding	Kd [2]: 11 pM; koff [2]: 2.1e-05 s⁻¹; kon [2]: 2e+06 M⁻¹ s⁻¹
3.27H7 (rat anti-human TREM2 antibody) (antibody, V domains shown, Whole IgG) VH: EVQLVETGGSLVQPGGSLKLTCATSGFPFSNVWLHWIRRSPEKQLEWVAQIKARSDNYATYYAESVKGRFIVSRDDSKTTIYLQMNNLKEEDTAIYYCTGLDYWGQGVMVTVSS VL: DVVLTQAPLSVSVTPGESASISCRSSRSLLTSKGITSLYWYLQKPGMSPHLLIYRMSNLASGIPDRFSGSGSETDFTLKISEVEPEDVGVYYCAQFLVYPYTFGAGTKLELK	–	–	Kd (hTREM2 stalk antigen): 220 pM; Kd [3]: 260 pM
rat 3.27H7 mIgG2a LALAPG (antibody, V domains shown, Mouse IgG2a LALAPG constant region) VH: EVQLVETGGSLVQPGGSLKLTCATSGFPFSNVWLHWIRRSPEKQLEWVAQIKARSDNYATYYAESVKGRFIVSRDDSKTTIYLQMNNLKEEDTAIYYCTGLDYWGQGVMVTVSS VL: DVVLTQAPLSVSVTPGESASISCRSSRSLLTSKGITSLYWYLQKPGMSPHLLIYRMSNLASGIPDRFSGSGSETDFTLKISEVEPEDVGVYYCAQFLVYPYTFGAGTKLELK	no binding	–	–

Source: patent US20220389097A1 (Genentech, published 2022)
